Measured values from patent US20150203579A1 (Regeneron, published 2015).

T1: recombinant cynomolgus monkey PD-1 expressed with a C-terminal myc-myc-hexahistidine tag (cynomolgus monkey (Macaca fascicularis))
T1 construct: Monomeric reagent; also called MfPD-1-MMH
T1 chain: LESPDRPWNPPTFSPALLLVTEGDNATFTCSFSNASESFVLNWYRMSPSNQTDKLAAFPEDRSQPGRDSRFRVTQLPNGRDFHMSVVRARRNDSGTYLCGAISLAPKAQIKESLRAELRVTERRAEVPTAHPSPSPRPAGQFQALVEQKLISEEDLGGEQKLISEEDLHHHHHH

T2: monkey PD-1 with mFc (monkey (MfPD-1))
T2 construct: also called monkey PD-1-mFc; monkey PD-1 dimer
T2 chain: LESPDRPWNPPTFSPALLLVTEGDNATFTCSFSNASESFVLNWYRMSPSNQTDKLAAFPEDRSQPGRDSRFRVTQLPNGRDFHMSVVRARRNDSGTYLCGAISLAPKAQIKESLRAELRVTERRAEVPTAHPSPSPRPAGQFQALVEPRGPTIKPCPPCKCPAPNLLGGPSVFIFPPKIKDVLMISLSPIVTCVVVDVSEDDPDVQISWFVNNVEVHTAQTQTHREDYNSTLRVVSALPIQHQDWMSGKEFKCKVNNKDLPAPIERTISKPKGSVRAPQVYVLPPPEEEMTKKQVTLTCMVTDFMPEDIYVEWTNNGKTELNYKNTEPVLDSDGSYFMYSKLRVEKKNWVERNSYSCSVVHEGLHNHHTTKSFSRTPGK

B1: H2aM7796N (antibody, mouse IgG2a, V domains shown)
VH: QVQLVESGGGVVQPGRSLRLSCAASGFTFSSYGMHWVRQAPGKGLEWVAIIWSDGDSEYNLDSVKGRFTISRDNSKNTLYLQMNSLRVEDSAVYYCARDRDLEDIWGQGTMVTVSS
VL: DIQMTQSPSSLSASVGDRVTITCRASQGIRNDLGWYQQKPGKAPKRLIYAASNLQSGVPSRFSGSGSGTEFTLTISSLQPEDFATYYCLQHNSYPLTFGGGTKVEIK
notes: Human variable domains, mouse IgG2a Fc; also called H2M7796N
B2: H2aM7798N (antibody, mouse IgG2a, V domains shown)
VH: EVQLLESGGVLVQPGGSLRLSCAASGFTFSNFGMTWVRQAPGKGLEWVSGISGGGRDTYFADSVKGRFTISRDNSKNTLYLQMNSLKGEDTAVYYCVKWGNIYFDYWGQGTLVTVSS
VL: DIQMTQSPSSLSASVGDSITITCRASLSINTFLNWYQQKPGKAPNLLIYAASSLHGGVPSRFSGSGSGTDFTLTIRTLQPEDFATYYCQQSSNTPFTFGPGTVVDFR
notes: Human variable domains, mouse IgG2a Fc; also called H2M7798N
B3: H4H7798N (antibody, human IgG4 S228P, kappa, V domains shown)
VH: B2 VH
VL: DIQMTQSPSSLSASVGDSITITCRASLSINTFLNWYQQKPGKAPNLLIYAASSLHGGVPSRFSGSGSGTDFTLTIRTLQPEDFATYYCQQSSNTPFTFGPGTVVDFRR
B4: H4H9057P2 (antibody, human IgG4, V domains shown)
VH: EVQLVESGGGLVQSGRSLRLSCAASGFTFDDYAMHWVRQPPGKGLEWVSGINWNRGRTGYADSVKGRFTISRDNAKNSLYLQMNDLRVEDTALYYCAKAEQWLDEGYFDYWGQGTLVTVSS
VL: not shown
notes: Human IgG4 Fc (H4H prefix)
B5: H4H9068P2 (antibody, human IgG4, V domains shown)
VH: EVQLVESGGGLVQRGGSLRLSCAASGFSFSSYAMNWVRQAPGKGLEWVSTISDSGGSTYYADSVKGRFTISRDNSKNTLSLQMNSLRAEDTAVYYCAKDQGGSYPYYFHYWGQGTLVTVSS
VL: not shown
notes: Human IgG4 Fc (H4H prefix)
B6: H4xH9045P (antibody, human IgG4, V domains shown)
VH: EVQLVESGGGLVQPGRSLRLSCAASGFTFDDYDMHWVRQAPGKGLEWVSGSGWNRGSLGYADSVKGRFTISRDNAKKSLYLQMNSVRVEDTALYYCAKGFVVVSAAYFDYWGQGTLVTVSS
VL: not shown
notes: H4xH: modified human IgG4 Fc; also called H4xH9045P2
B7: H4xH9008P (antibody, human IgG4, V domains shown)
VH: EVQLVESGGGLVRPGGSLRLSCAASGFTFSTYAMAWVRQTPGKGLEGVSAIGGSGDSTYYVDSVKGRFTISRDNSKSTLFLQMNSLRAEDTAVYYCVKVRNYDGSFDIWGQGTMVTVSS
VL: not shown
notes: H4xH: modified human IgG4 Fc
B8: H1M7799N (antibody, mouse IgG1, V domains shown)
VH: EVQLVESGGGLVQPGGSLRLSCAASGFTVSNNYMSWVRQAPGKGLEWVSVIYSGGFTYYTDSVKGRFTISRHNSKNTLYLQMNSLRAEDTAVYYCARYYYDTSDYWTFFDYWGQGTLVTVSS
VL: EIVMTQSPATLSVSPGERATLSCRASQSVSSNLAWYQQKPGQAPRLLIYGASTRATGIPARFSGSGSGTEFTLTISSLQSGDFAVYYCQQYNNWPLTFGGGTKVEIN
notes: Human variable domains, mouse IgG1 Fc
B9: H4xH9048P2 (antibody, human IgG4, V domains shown)
VH: QVQLVQSGAEVKRPGSSVKVSCKVSGVTFRNFAIIWVRQAPGQGLEWMGGIIPFFSAANYAQSFQGRVTITPDESTSTAFMELASLRSEDTAVYYCAREGERGHTYGFDYWGQGTLVTVSS
VL: not shown
notes: H4xH: modified human IgG4 Fc

What was measured:
[1] = molecular target: T3, recombinant human PD-1 expressed with a C-terminal myc-myc-hexahistidine tag (human); assay: SPR (Biacore), mAb captured, hPD-1-MMH injected, 25 C;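 further: rate constants obtained by fitting sensorgrams to a 1:1 binding model, KD derived as kd/ka and half-life as ln2/(60·kd) in minutes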
T3 construct: also called hPD-1-MMH; human PD-1-MMH

[2] = molecular target: T3, recombinant human PD-1 expressed with a …; assay: SPR (Biacore), hPD-1-MMH, 37 C; end of range tied to H2aM7796N by Table 5
[3] = molecular target: T4, full length human PD-1 on HEK293 cells (HEK293/hPD-1) (human, UniProt Q15116 25-288); assay: FACS, dose titration on HEK293/hPD-1 cells; end tied to H2aM7796N by Table 21
T4 construct: also called human PD-1 expressing cells

[4] = molecular target: T5, dimeric biotinylated human PD-1 protein, human PD-1 extracellular domain with a C-terminal human Fc tag (human, biotinylated (sites not given)); assay: competition ELISA: blocking 200 pM biot-hPD-1-hFc binding to coated hPD-L1-mFc; end tied to H2aM7796N (and H4xH9008P) by Table 13
T5 construct: also called biot-hPD-1-hFc

[5] = molecular target: PD-1 chimera: extracellular domain of human PD-1 with trans-membrane and cytoplasmic domains of human CD300a, … (human, UniProt Q9UGN4 181-299, limits assumed); assay: cell-based or functional assay
[6] = molecular target: T3, recombinant human PD-1 expressed with a …; assay: SPR (Biacore), hPD-1-MMH, 37 C; end of range tied to H2aM7798N by Table 5
[7] = molecular target: T1, recombinant cynomolgus monkey PD-1 …; assay: SPR (Biacore), MfPD-1-MMH, 37 C; end of range tied to H2aM7798N by Table 9
[8] = molecular target: T6, human PD-1 dimer (human PD-1-mFc or human PD-1-hFc) (human, UniProt Q15116 25-170); assay: SPR (Biacore), hPD-1 dimer (mFc or hFc), 25 C; end of range tied to H2aM7798N by Table 6
T6 construct: also called hPD-1 dimer proteins

[9] = molecular target: T7, recombinant human PD-1 dimer expressed with a C-terminal mouse IgG2a Fc tag (human); assay: competition ELISA: blocking 100 pM hPD-1-mFc binding to coated hPD-L2-hFc; end tied to H2aM7798N by Table 14
T7 construct: also called hPD-1-mFc; human PD-1-mFc

[10] = molecular target: T4, full length human PD-1 on HEK293 cells …; assay: FACS, dose titration on HEK293/hPD-1 cells; end tied to H4H7798N by Table 21
[11] = molecular target: T2, monkey PD-1 with mFc; assay: SPR (Biacore), monkey PD-1-mFc, 25 C; end of range tied to H4H7798N by Table 10
[12] = molecular target: T1, recombinant cynomolgus monkey PD-1 …; assay: SPR (Biacore), MfPD-1-MMH, 25 C; end of range tied to H4H9057P2 by Table 8
[13] = molecular target: T7, recombinant human PD-1 dimer expressed …; assay: competition ELISA: blocking 1.5 nM hPD-1-mFc binding to coated hPD-L1-hFc; end tied to H4H9057P2 by Table 12 (below theoretical bottom 0.75 nM)
[14] = molecular target: T2, monkey PD-1 with mFc; assay: SPR (Biacore), monkey PD-1-mFc, 25 C; end of range tied to H4H9068P2 by Table 10
[15] = molecular target: T2, monkey PD-1 with mFc; assay: SPR (Biacore), monkey PD-1-mFc, 37 C; end of range tied to H4H9068P2 by Table 11
[16] = molecular target: T1, recombinant cynomolgus monkey PD-1 …; assay: SPR (Biacore), MfPD-1-MMH, 37 C; end of range tied to H4xH9045P by Table 9
[17] = molecular target: T2, monkey PD-1 with mFc; assay: SPR (Biacore), monkey PD-1-mFc, 37 C; end of range tied to H4xH9008P by Table 11 (kd fixed at 1.00E-05)
[18] = molecular target: T4, full length human PD-1 on HEK293 cells …; assay: FACS, dose titration on HEK293/hPD-1 cells; end tied to H1M7799N by Table 20
[19] = molecular target: T5, dimeric biotinylated human PD-1 …; assay: competition ELISA: blocking 200 pM biot-hPD-1-hFc binding to coated hPD-L1-mFc; end tied to H1M7799N by Table 13 (below theoretical bottom 100 pM)
[20] = molecular target: T7, recombinant human PD-1 dimer expressed …; assay: competition ELISA: blocking 1.5 nM hPD-1-mFc binding to coated hPD-L1-hFc; end tied to H4xH9048P2 by Table 12

Binder | Kd [1] [nM] | koff [1] [s⁻¹] | kon [1] [M⁻¹ s⁻¹] | t½ [1] [min] | further results
B1 | 286 | 0.00193 | 6730 | 6 | Kd [2]: 1510 nM; EC50 [3]: 4.81 nM; IC50 [4]: 1.3 nM
B2 | 2.31 | 0.000306 | 132000 | 38 | Emax, AP1-Luc signal at 100 nM antibody (% of signal without anti-PD-1 antibody) [5]: 239%; Kd [6]: 3.79 nM; Kd [7]: 7 nM; Kd [8]: 0.0655 nM; IC50 [9]: 0.13 nM
B3 | 3.01 | 0.000443 | 147000 | 26 | Emax, AP1-Luc signal at 100 nM antibody (% of signal without anti-PD-1 antibody) [5]: 343%; EC50 [10]: 0.509 nM; Kd [11]: 0.137 nM
B4 | 291 | 0.0134 | 46000 | 0.9 | Kd [12]: 551 nM; IC50 [13]: 0.19 nM
B5 |  |  |  |  | Kd [14]: 54.2 nM; Kd [15]: 86.3 nM
B6 | 74.6 | 0.00403 | 54000 | 2.9 | Kd [16]: 7540 nM
B7 | 31 |  |  | 8.7 | Kd [17]: < 0.049 nM
B8 | 244 | 0.0123 | 50400 | 0.9 | EC50 [18]: 0.0332 nM; IC50 [19]: 0.059 nM
B9 | 8.95 | 0.00123 | 137000 | 9.4 | IC50 [20]: 3.3 nM
